The values below come from US20170212130A1 (ROCKEFELLER UNIVERSITY, published 2017).

Read-outs that look alike come from different tables or passages of the source.

As a reminder, the Kd is the constant that tells how readily two partners part at equilibrium.

Test [1] has as its target T1, GFP-His6 (eGFP) (Aequorea victoria, UniProt P42212 2-238 = GFP). Nature of the test: SPR, GFP immobilized. For orientation: In SPR one partner is held on a chip, and binding of the other changes the refractive index at the surface.
The target in test [2] is T1, GFP-His6 (eGFP). The test is described as follows: SPR, GFP immobilized; reference LaG-16 or LaG-2 alone.
In test [3] the target is T2, mCherry (Discosoma).
T2 construct: Immunogen is mCherry-His6; SPR says recombinant mCherry; also called recombinant mCherry-His6; Discosoma mCherry
The test is described as follows: SPR, mCherry immobilized.

The target in test [4] is T2, mCherry. The test is described as follows: label under gel lane; legend: in vitro Kd for mCherry by SPR.
Test [5] deals with T3, GFP-His6 (eGFP) (Aequorea victoria, UniProt P42212 2-238 = GFP).
T3 construct: SPR and bead assays speak only of recombinant GFP or eGFP; also called recombinant GFP; A. victoria (Av) GFP
Nature of the test: bead binding: nanobody-Dynabeads + fluorescent protein, eluate on SDS-PAGE.

Test [6] addresses T4, DsRed (Discosoma sp., UniProt Q9U6Y8 1-225).
T4 construct: Recombinant fluorescent protein; construct not described; also called standard DsRed; DsRed from Discosoma (Ds)
Described as above.

Test [7] deals with T2, mCherry. The test is described as follows: SPR, mCherry immobilized, Langmuir fit; unit inferred.
The target in test [8] is T3, GFP-His6 (eGFP). Nature of the test: SPR, GFP immobilized.
Test [9] deals with T3, GFP-His6 (eGFP). Nature of the test: SPR, GFP immobilized, Langmuir fit; unit inferred.
The target of test [10] is T4, DsRed. The test is described as follows: bead binding: nanobody-Dynabeads + fluorescent protein, eluate on SDS-PAGE. This is another data set of the same source.
The target in test [11] is T3, GFP-His6 (eGFP). Nature of the test: label under gel lane; legend: in vitro Kd for GFP by SPR.
Test [12] deals with T3, GFP-His6 (eGFP). Described as above. This is another data set of the same source.
In test [13] the target is T3, GFP-His6 (eGFP). The test is described as follows: method not named in the sentence (in vitro Kd by SPR per FIG. 3 legend).
The target of test [14] is T3, GFP-His6 (eGFP). Nature of the test: SPR, GFP immobilized, Langmuir fit; no unit printed [continued].
Another test addresses T5, GFPuv (Aequorea victoria, UniProt P42212 1-229 = GFP, limits assumed).
T5 construct: 15N-labeled for NMR; also called GFPuv variant; 15N-labeled GFPuv
Nature of the test: NMR, 15N-1H HSQC of 15N-GFPuv with 1-1.2 molar excess of LaG.

Test [15] deals with T3, GFP-His6 (eGFP). Nature of the test: equilibrium bead binding: LaG-Dynabeads + 0.8-400 nM GFP, Coomassie band density fit.
Test [16] addresses T3, GFP-His6 (eGFP). Nature of the test: bead binding assay (footnote 1).

T4 sequence (Q9U6Y8 whole entry): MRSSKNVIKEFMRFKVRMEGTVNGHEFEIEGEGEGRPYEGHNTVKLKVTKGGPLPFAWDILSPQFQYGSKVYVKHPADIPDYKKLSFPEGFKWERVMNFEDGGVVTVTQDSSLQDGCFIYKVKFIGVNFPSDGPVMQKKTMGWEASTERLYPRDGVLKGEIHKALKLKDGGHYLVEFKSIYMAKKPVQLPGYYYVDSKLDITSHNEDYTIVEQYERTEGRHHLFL

B1: LaG16-LaG2 fusion with a flexible glycine-rich linker (G4S) (other)
chain: MAQVQLVESGGRLVQAGDSLRLSCAASGRTFSTSAMAWFRQAPGREREFVAAITWTVGNTILGDSVKGRFTISRDRAKNTVDLQMDNLEPEDTAVYYCSARSRGYVLSVLRSVDSYDYWGQGTQVTVSGGGGSMAQVQLVESGGGLVQAGGSLRLSCAASGRTFSNYAMGWFRQAPGKEREFVAAISWTGVSTYYADSVKGRFTISRDNDKNTVYVQMNSLIPEDTAIYYCAAVRARSFSDTYSRVNEYDYWGQGTQVTV
Turning to B1, the Kd with GFP-His6 (eGFP) [1] came out at 0.036 nM. The “fold lower Kd than either LaG alone” value in the test with GFP-His6 (eGFP) [2] was around 20 fold.

B2: LaM-8 (VHH)
VHH: QVQLVESGGGLVQAGGSLRLSCAVSGRPFSEYNLGWFRQAPGKEREFVARIRSSGTTVYTDSVKGRFSASRDNAKNMGYLQLNSLEPEDTAVYYCAMSRVDTDSPAFYDYWGQGTQVTVST
Turning to B2, the Kd with mCherry [3], with mCherry [4] and with mCherry [7] was 63 nM each time. In addition, the binding result with GFP-His6 (eGFP) [5] and in the test with DsRed [6] was “no binding” throughout.

B3: LaG-9 (VHH)
VHH: DVQLVESGGGLVQAGGSLRLSCAASGRTFSTSAMGWFRQAPGKEREFVARITWSAGYTAYSDSVKGRFTISRDKAKNTVYLQMNSLKPEDTAVYYCASRSAGYSSSLTRREDYAYWGQGTQVTVS
On to B3, for which the Kd with GFP-His6 (eGFP) [8], with GFP-His6 (eGFP) [9], in the test with GFP-His6 (eGFP) [11] and in the test with GFP-His6 (eGFP) [12] was 3.5 nM in each case. Further, the binding result with DsRed [10] is given as “no binding”.

B4: LaG-41 (VHH)
VHH: DVQLVESGGGLVQAGGSLRLSCAASGPTGAMAWFRQAPGKEREFVGGISGSETDTYYVDSVKGRFTVDRDNVKNTVYLQMNSLKPEDTAVYYCAARRRITLFTSRTDYDFWGRGTQVTV
Molecule B4 registered a Kd in the test with GFP-His6 (eGFP) [13] of 0.9 nM. Also, the binding result in the test with DsRed [10] is recorded as “no binding”.

B5: LaG-24 (VHH)
VHH: DVQLVESGGGLVQPGGSLRLSCAASGEIASIIAIGWYRQAPGKQRESVALITRSGMITYGDSAQGRFTISRDDAKNTVYLHMDDLVPEDTAVYYCNAKKVSFGDYWGQGTQVTVS
As to B5, the Kd in the test with GFP-His6 (eGFP) [8] came out at 41 nM; with GFP-His6 (eGFP) [14], 41 nM; with GFP-His6 (eGFP) [11], 35 nM; with GFP-His6 (eGFP) [12], 35 nM. The binding result in the test with GFPuv and in the test with DsRed [10] was “no binding” each time.

B6: LaM-6 (VHH)
VHH: QVQLVESGGGLVQAGGSLRLSCVASGSAPSFFAMAWYRQSPGNERELVAALSSLGSTNYADSVKGRFTISMDNAKNTVYLQMNNVNAEDTAVYYCAAGDFHSCYARKSCDYWGQGTQVTVS
For B6, the Kd in the test with mCherry [3], in the test with mCherry [4] and with mCherry [7] was 0.26 nM in each case. The binding result with GFP-His6 (eGFP) [5] and with DsRed [6] was “no binding” in each case.

B7: LaG-2 (VHH)
VHH: QVQLVESGGGLVQAGGSLRLSCAASGRTFSNYAMGWFRQAPGKEREFVAAISWTGVSTYYADSVKGRFTISRDNDKNTVYVQMNSLIPEDTAIYYCAAVRARSFSDTYSRVNEYDYWGQGTQVTV
notes: that range is inconsistent in itself; not shown: PreScission Protease cleavage site and C-terminal 6xHis tag
With B7, the results for the Kd with GFP-His6 (eGFP) [15], with GFP-His6 (eGFP) [8] and with GFP-His6 (eGFP) [16] were 19 nM, 16 nM and 19 nM, respectively. In addition, the binding result with DsRed [10] is “no binding”.
